How the values were obtained:
[1] = molecular target: soluble trimeric-RBD form of the SARS-CoV-2 S protein (RBD aa 330-532, Wuhan strain, with a foldon t (SARS-CoV-2 (ancestral Wuhan strain) | T4 (as in 'T4 fibritin')) (UniProt P0DTC2)); test: Western blot under non-reducing conditions
[2] = molecular target: soluble trimeric-RBD form of the SARS-CoV-2 S protein (RBD aa 330-532, Wuhan strain, with a foldon t (SARS-CoV-2 (ancestral Wuhan strain) | T4 (as in 'T4 fibritin')) (UniProt P0DTC2)); test: SEC

soluble trimeric-RBD form of the SARS-CoV-2 S protein (RBD aa 330-532, Wuhan strain, with a foldon t (from UniProt P0DTC2 330-532) (domain or fragment)
stoichiometry N [1]: 3
stoichiometry N [2]: 3
